For one assay, the target named is EGFRvIII (UniProt P00533 25-1210). The experiment in a line: cell-based or functional assay.
Assay [1] concerns the target T1, human CD3 (human, UniProt P07766 23-207).
T1 construct: whole, on cells; CD3 is a multi-chain complex; also called CD3 on human CD3+ Jurkat cells; CD3+ human T cell line (Jurkat)
The experiment in a line: flow cytometry on human CD3+ Jurkat cells, anti-His mAb and FITC goat anti-mouse IgG, non-linear regression of MFI. The source says:
(§1) Cell-surface bound tandem diabody was detected by anti-His mAb followed by FITC-conjugated goat anti-mouse IgG. To calculate KD, mean fluorescence intensities determined by flow cytometry were modeled as sigmoidal dose-response by non-linear regression.
(§2) FIGS. 3A and 3B present binding of titrated tandem diabodies TandAb D, containing var_y, and TandAb E (SEQ ID NO:12), containing var_z, to a CD3⁺ human T cell line (Jurkat) and a CD3⁺ cynomolgus cell line (HSC-F), as determined by flow cytometric analysis.
(Flow cytometry measures light scatter and fluorescence of single cells or particles in a stream.)

Assay [2] concerns the target T1, human CD3. The assay can be described thus: flow cytometry on Jurkat cells, non-linear regression (rounded restatement of the FIG. 3 value).
Description: as §1, §2

The target in a further assay is T2, cynomolgus CD3 (cynomolgus, UniProt Q95LI5 22-198).
T2 construct: whole, on cells; CD3 is a multi-chain complex; also called CD3 on cynomolgus CD3+ HSC-F cells; cynomolgus CD3-expressing cell line (HSC-F)
The experiment in a line: flow cytometry on cynomolgus CD3+ HSC-F cells, anti-His mAb and FITC goat anti-mouse IgG, non-linear regression of MFI.
Description: as §1, §2

The target in assay [3] is T1, human CD3. The assay can be described thus: flow cytometry on Jurkat cells; reference TandAb E.
Description: as §1, §2

These results are taken from patent US20160039934A1 (AFFIRMED, published 2016).

Substitutions are numbered along the chain they refer to.

The Kd is the concentration at which binding is half-saturated. The low end stands for higher affinity, the high end for lower affinity.

T1 sequence (P07766 23-207): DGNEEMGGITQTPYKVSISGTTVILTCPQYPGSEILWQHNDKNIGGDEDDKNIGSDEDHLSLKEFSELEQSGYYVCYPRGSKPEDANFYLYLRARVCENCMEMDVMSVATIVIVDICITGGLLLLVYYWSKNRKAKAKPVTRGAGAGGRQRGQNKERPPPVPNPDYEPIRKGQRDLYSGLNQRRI
T2 sequence (Q95LI5 22-198): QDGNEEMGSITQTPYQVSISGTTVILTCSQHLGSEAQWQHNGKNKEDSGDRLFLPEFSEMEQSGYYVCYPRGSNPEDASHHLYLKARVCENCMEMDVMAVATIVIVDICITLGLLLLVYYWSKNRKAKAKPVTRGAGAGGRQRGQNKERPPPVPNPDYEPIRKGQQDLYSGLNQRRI

B1: TandAb G (SEQ ID NO:14) (bispecific antibody)
chain: DIQMTQSPSSLSASVGDRVTITCRSSTGAVTTSNYANWVQQKPGKAPKGLIGGTNKRAPGVPSRFSGSLIGDKATLTISSLQPEDFATYYCALWYSNLWVFGQGTKVEIKGGSGGSEVQLVQSGAEVKKPGESLKISCKGSGYSFTSYWIGWVRQMPGKGLEWMGIIYPGDSDTRYSPSFQGQVTISADKSISTAYLQWSSLKASDTAMYYCARLGSSWTNDAFDIWGQGTMVTVSSGGSGGSSYELTQPPSVSVSPGQTARITCSGDALPKQYAYWYQQKPGQAPVLVIYKDSERPSGIPERFSGSSSGTTVTLTISGVQAEDEADYYCQSADSSGTPLIVFGTGTKLTVLGGSGGSEVQLVESGGGLVQPGGSLRLSCAASGFTFSTYAMNWVRQAPGKGLEWVGRIRSKYNNYATYYADSVKDRFTISRDDSKNSLYLQMNSLKTEDTAVYYCARHGNFGNSYVSWFAYWGQGTLVTVSSAAAGSHHHHHH
As to B1, the “EC50, 4 h calcein release cytotoxicity assay” value in the assay with EGFRvIII is 0.129 nM.

B2: TandAb D (var_y) (SEQ ID NO:11) (bispecific antibody)
chain: B1 chain with G49A, W469Y
notes: Homodimeric tandem diabody; Detected by anti-His mAb
B2: the Kd in the assay with human CD3 [1] came out at 1.82 nM; in the assay with human CD3 [2] it was 1.8 nM; in the assay with cynomolgus CD3, 3.4 nM. The “fold higher affinity than TandAb E” value in the assay with human CD3 [3] was over 10 fold. In addition, the “EC50, 4 h calcein release cytotoxicity assay” value with EGFRvIII is 0.122 nM.

B3: TandAb E (var_z) (SEQ ID NO:12) (bispecific antibody)
chain: B1 chain with W469H
notes: as for B2
As for B3, the Kd with human CD3 [1] was found to be 27.7 nM; with human CD3 [2], 27.7 nM; with cynomolgus CD3 it was 24.3 nM.
